Measurements as given in the supplement of paper PMC12667976.

B1: library; numbered along this chain (parent)
chain: MATDAALRRLLRLHRTEIAVAVDSAFPLLHALADHDVVPEDKFQETLHLKEKEGCPQAFHALLSWLLTQDSTAILDFWRVLFKDYNLERYGRLQPILDSFPKDVDLSQPRKGRKPPAVPKALVPPPRLPTKRKASEEARAAAPAALTPRGTASPGSQLKAKPPKKPESSAEQQRLPLGNGIQTMSASVQRAVAMSSGDVPGARGAVEGILIQQVFESGGSKKCIQVGGEFYTPSKFEDSGSGKNKARSSSGPKPLVRAKGAQGAAPGGGEARLGQQGSVPAPLALPSDPQLHQKNEDECAVCRDGGELICCDGCPRAFHLACLSPPLREIPSGTWRCSSCLQATVQEVQPRAEEPRPQEPPVETPLPPGLRSAGEEVRGPPGEPLAGMDTTLVYKHLPAPPSAAPLPGLDSSALHPLLCVGPEGQQNLAPGARCGVCGDGTDVLRCTHCAAAFHWRCHFPAGTSRPGTGLRCRSCSGDVTPAPVEGVLAPSPARLAPGPAKDDTASHEPALHRDDLESLLSEHTFDGILQWAIQSMARPAAPFPS

Variants of: B1
Test: AIRE transcriptional activation functional score (insulin promoter-GFP; nonsense median 0, synonymous median 1) (normalised score); higher = higher AIRE activity (more reporter activation)
Details: with insulin promoter-GFP reporter in HEK293
Method: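 Deep mutational scan of full-length human AIRE (codon-optimized cDNA, DT-POPCode NNN libraries over three regions) integrated at a Bxb1 landing pad in HEK293 cells carrying an insulin core promoter-GFP reporter at a Flp-In site. Cells were sorted for the top 10% GFP about 14 days after transfection. Variant frequency log-ratios (select vs non-select, TileSeq) were rescaled so that the nonsense median is 0 and the synonymous median is 1, then averaged over biological replicates.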

AIRE transcriptional activation functional score, by site and new letter:
P115: L 1.2 | A 0.798 | K -0.166 | V 1.21 | C 0.977 | R 0.784 | Q 1.01 | N 1.02 | W 0.278 | M 0.979 | Y 0.917 | I 0.466 | E 0.792 | S 1.58 | T 0.525 | F 1.5 | D 0.0469 | H 1.03 | G 0.828
L122: H 0.431 | R 0.83 | V 0.859 | F 1.32 | I 0.612 | Q 0.272 | P 0.586 | D 1.44 | C 1.17 | W 0.871 | E 0.827 | K 0.401 | T 0.686 | G 1.29 | N 0.335 | A 0.747 | M 1.1 | S 1.44 | Y 1.45
P124: A 0.614
A117: G 1.22 | R 0.501 | L 1.13 | T 1.16 | P 0.913 | M 0.838 | F 1.04 | Q 1.44 | V 0.34 | Y 1.76 | I 0.777 | E 1.03 | W 1.4 | C 1.1 | N 0.792 | H 1.22 | D 0.179 | K 0.457 | S 0.692
S107: L 1.05 | N 0.000996 | I 1.02 | E 0.777 | Y 0.891 | W 1.49 | C 1.12 | G 0.704 | V 1 | Q 0.12 | F 0.789 | R 1.25 | K 0.75 | H 1.33 | T 0.785 | A 1.04 | D 0.707 | P 0.096 | M 1.27
P116: I 1.36 | T 0.481 | K 0.772 | H 1.15 | A 0.756 | F 1.18 | C 1.36 | Q 1.41 | W 1.13 | R 0.38 | G 0.577 | Y 1.17 | E 0.895 | D 0.468 | V 0.906 | N 2.06 | L 1.07 | M 1.1 | S 1.12
P109: D 0.988 | F 1.16 | W 0.0143 | N -1.94 | E 0.161 | R 0.676 | S 1.1 | A 0.959 | I 0.666 | Y 0.732 | G 0.279 | H 1.28 | L 0.821 | V 0.635 | K 0.0515 | C 0.656 | M 2.55 | T 1.54 | Q 0.797
Q108: C 0.53 | L 0.0593 | V 0.8 | E 1.66 | W 0.796 | M 2.4 | N 0.625 | R 0.951 | I -0.272 | P 0.669 | K 0.479 | S 0.618 | H -0.231 | F 0.53 | Y 1.24 | G 0.482 | A 0.176 | T 1.35 | D 2.03
R113: Q 1.18 | F 1.12 | T 0.935 | C 1.3 | P 0.537 | G 0.801 | Y 0.831 | D 0.648 | H 1.08 | I 1.46 | L 0.951 | E 0.975 | K 1.18 | A 0.951 | N 1.68 | S 1.02 | M 0.565 | W 0.668 | V 0.537
R110: F 0.927 | N 0.62 | W 1.5 | Q 0.31 | L 1.44 | G 1.34 | V 1.21 | C 0.426 | I 1.21 | E 1.09 | Y 1.61 | M 0.295 | K 1.25 | S 1.01 | D 2.5 | T 0.97 | A 1.41 | P 0.621
V118: T 0.667 | G 0.911 | P 1.47 | Y 1.42 | I 1.01 | K 0.143 | Q 0.675 | D 0.403 | E 1.08 | H 1.74 | C 1.25 | S 0.863 | M 1.31 | F 1.01 | W 1.13 | N 0.783 | R 0.372 | L 0.953 | A 1.02
K111: F 0.696 | H 0.607 | A 1.84 | S 1.18 | G 0.901 | W 0.591 | Y 1.29 | E 0.792 | D -0.0433 | M -0.763 | Q -0.0716 | L 1.65 | R 0.805 | V 1.37 | I 1.36 | T 0.947 | C 1.44 | N 1.36
L106: S -1.04 | I -1.62 | P -1.47 | W 0.739 | K 0.511 | G -0.428 | T 0.979 | N 0.233 | R 0.112 | Y 1.27 | V 0.581 | Q -0.722 | M 0.0877
K114: V 0.691 | H 0.207 | R 0.793 | L 1.03 | T 1.19 | E 1.46 | N 0.632 | G 0.427 | W 1.32 | S 0.787 | M 0.913 | D 0.131 | C 1.06 | Y 1.51 | P 0.1 | I 1.03 | Q 0.342 | F 0.817 | A -0.00452
G112: P 1.12 | H 0.912 | A 1.49 | L 1.31 | F 1.03 | C 0.924 | N 0.726 | R 0.278 | I 1.08 | K 0.268 | M 0.488 | Y 0.893 | E 1.23 | T 1.31 | V 0.878 | Q 1.37 | S 0.851 | W 1.45 | D 1.13
V123: M 1.72 | D 1.11 | N 1.03 | I 1.17 | G 1.3 | Q 1.31 | A 0.886 | E 0.862 | P 0.742 | H 1.19 | F 1.33 | R 0.872 | K 1.26 | Y 1.43 | C 1.27 | T 0.905 | S 0.751 | L 1.28
K120: P 1.21 | F 0.998 | R 1.21 | H 0.932 | Q 0.232 | I 1.2 | S 1.21 | E 0.943 | N 1.29 | A 0.814 | L 1.13 | M 1.31 | G 1.12 | Y 1.34 | V 1.01 | D 0.677 | T 1.79 | C 1.2 | W 1.43
A121: K 1.21 | W 1.54 | H 0.141 | G 1.4 | Y 1.59 | E 1.35 | N 1.1 | S 1.28 | Q 0.141 | D 0.847 | C 1.3 | F 1.22 | M 1.2 | V 0.67 | P 0.967 | L 1.09 | R 0.922 | T 0.322 | I 0.906
P119: D 0.86 | G 0.741 | S 0.765 | T 1.59 | E 1.37 | H 1.17 | R 0.495 | V 0.878 | M 0.545 | N 1.04 | W 1.58 | I 1.52 | Q 1.02 | K 1.36 | A 1.03 | Y 1.63 | F 1.39 | C 1.04 | L 0.904
